A protein production outcome set (Wang et al. 2014)

Experiment: label from the status in PepcDB records

Sequence	protein production
MGNCCVSSGTTDRENENVSDKNTTIVEEETVVKEVLSETTLFTPSSSFRTSTFKDPVKTKIREDEEKKPGFLKMASDPVLIRPGSVDPEEGSEVSEICSLSLSESVSSTVVMNGYDEEHVMMKQRKSQRSPAKTRTQVTGNNYPTRRTDQSPRKRNNGTCNGARYGSGVRDPGERSGRRSRSPATNRSVMDSNQSSRVGGAKTRKNNQSPGRVRLDPAKNGLDQQQHQNYGYTTEELLENPLVSLECFIFL	failed
MGNCVFKGNGGSRKLYDKDDSLIKVVTPNGGVMELHPPIFAEFITNEFPGHVIHDSLSLRHSSPPLLHGEELFPGNIYYLLPLSSSAAATAQLDSSDQLSTPYRMSFGKTPIMAALSGGGCGVWKVRLVISPEQLAEILAEDVETEALVESVRTVAKCGGYGCGGGVHSRANSDQLSVTSSFKGKLW	not failed
MGNEEEKMNADIFSYEGEGIQCVYDNKNWVMCIKNWKPNNDIENIRYLEVHHATDEQFVLLKGKAVLLAAVKADGACRIDVIPMEPYKVYNIPQGIWFNTITQKDTKLVYVQDAATTAENSEYCDMTQEELNEVKEKASACLD	failed
MGNFLRRSCAVHPASGDGGRGRHVDEPPQQRPSSVRIKVRMRRDQLEELLYLARRGDQSDDGGKIGFLILKECMEGRLPASVLGSGGDVRSQRRGSYMVYRRLGSITEE	failed
MGNFTFEEMNLMCIYNTGSRTGLIDSLREMRGELSPEETELRELTDSALTKLCAMTDEDFAQLELYPDFDQLEHHHHHH	not failed
MGNKLVNSLSKITTSSKEVTSDILVMNFTIVNAFLIGNKTQWVLVDTALENSADFILKAAEKRFGKGSVPKAIILTHGHFDHVGSVIKLSKLWSVPVYIHELEMPYVTGKKDYPLADPTVDEGMVAKISQTFPHTSIDISSNVSPLPSDSSIPYMPDWKWIHTPGHTDGHISLFREKDHVLIVGDAFCTTKQESLLSVITHHEEISGPPKYLTTDWAKAKNSIICLKNLKPLIAIPSHGEELSGEELTKHLELLINNFDEIAKPAEGQFVTNK	failed
MGNLKAEYLEQTYIDLAPLKDAEDCRTYLTRSQVDGSLAVRKEICALQYPLYQQLIDFSHPSLARVLETYTKDGRYFVLEEYVSGSTIGSYLKRGYHFQEHEILSFISQLCSALSFLHAHNIIHRDVTPENLLISTDNVLKLIDFGISRSKKEGQSQDTTILGTVGYAAPEQFGFGQTDERTDIYATGVLLNVLLTGSLPKDDLPFDPRYRQIVLKCTSISPADRYSSVSELKSQIMAIKPTRIYQAEIVEPSGKAPRKDSLIRRFFRHVPGFRTGNPGKMIVAIIGYFLMLLFVVVNGTRPLEPGDIRSEYWTINYFFVGVWAAYVNLGNYCGHIEAYDKVGPLTRLLLRTAVALAVFLTTGLLLYFENYCLK	failed
MGNNGRDILAGLSVAGLMLPEAIAYSGIAGVPPQHALYAAMAGCLVYALLGQSRFAIISPTSSSAAILAAMLAALVPQPGQKMLLVAVAVFLVGLFFLAAGTLRLGALSSIISRPVLRGFAFGLAILISLKQFPAIFGMPQAGAGTFEAILQILTNPGQWNGFSLSIGIAALILLLFARRYPQIPGSLIIIALAIPISVMFDLQQRGVDVVGPIDLSGIWGSVTTLSLDELAHVARFAPPLVLILFAESWGTIRGLSLRHGEDVDANRELKTLGIANVASAALQGMPVGAGFSAGAASEAANPRTRMASAIAAIGLAGFTFAAADWFAYIPHAALSAIIIVALLHALDPSPFLRLWRLRQDLVLALAATAGVLFLGVLNGMLAAIVLSFAVFLQRLSSPRIVMLGRLGASHDFVDVKRHPDAAEPAGMLVLRPAQPLFFGNAEPTFAEITRRILASPDINAVIISLEETFELDTTALEALLEFDASLRGRNIGIRYAPMHDAVRDVVAAGGGDDLLRRANYSVDDAVAAMDGLKEEK	failed
MGNNNSTKESTHDNHSDSSTHEEMDHSGSADVPEGLQESKNPKYKVGSQVIINTSHMKGMKGAEATVTGAYDTTAYVVSYTPTNGGQRVDHHKWVIQEEIKDAGDKTLQPGDQVILEASHMKGMKGATAEIDSAEKTTVYMVDYTSTTSGEKVKNHKWVTEDELSAKLEHHHHHH	not failed
MGNQDTIIETDNGNSDYETPQPTSFPLEHNHFGVMEDGYIKIYEYNESRNEVKLKKEYADDELELEHHHHHH	not failed
MGNSLHQIKCCTSFIHCQNAAVDAPSIAKTLADYLYPAFFHQDLPAPLKISVTGCPNQCGGGVEADIGISGYFATVPRVDDAGLMAANIDFGHLISGCPVGAIRPRQVEGGTTVVINAERCIRCTSCIQVAPEGIKPGPERFVAIAVGGHGGNNRRGPEMAAVVFSRVPARPLDYAAICERVQRIIACWRDRGKRGERLAGFLERLEHHHHHH	failed
MGNSQRQSEEIEAMAAIYGEEWCVIDENAKIFCIRVTDFMDDPKWTLCLQVMLPSEYPGTAPPSYQLNAPWLKGQERADLSNSLEEIYVHNMGESILYQWVEKIRDALIQKSQITEP	not failed
MGNTIRALVAFIPADRCQNYVVRDLREMPLDKMVDLSGSQLRRFPLHVCSFRELVKLYLSDNHLNSLPPELGQLQNLQILALDFNNFKALPQVVCTLKQLCILYLGNNKLCDLPSELSLLQNLRTLWIEANCLTQLPDVVCELSLLKTLHAGSNALRLLPGQLRRLQELRTIWLSGNRLTDFPTVLLHMPFLEVIDVDWNSIRYFPSLAHLSSLKLVIYDHNPCRNAPKVAKGVRRVGRWAEETPEPDPRKARRYALVREESQELQAPVPLLPPTNS	failed
MGNTTSDRVSGERHGAKAARSEGAGGHAPGKEHKIMVGSTDDPSVFSLPDSKLPGDKEFVSWQQDLEDSVKPTQQARPTVIRWSEGGKEVFISGSFNNWSTKIPLIKSHNDFVAILDLPEGEHQYKFFVDGQWVHDPSEPVVTSQLGTINNLIHVKKSDFEVFDALKLDSMESSETSCRDLSSSPPGPYGQEMYAFRSEERFKSPPILPPHLLQVILNKDTNISCDPALLPEPNHVMLNHLYALSIKDSVMVLSATHRYKKKYVTTLLYKPI	not failed
MGNVLFLVSLSLIWVMLLYHMFLMQGGFRHYMTFERNIPKWKENVKDLPKVSVLIPAHNEEVVIRQTLKAMVNLYYPKDRLEIIVVNDNSSDRTGDIVDEFSTQYGFIKMVVTKPPHAGKGKSSALNCGFAESNGDVICVYDADNTPEKMAVYYLVLGLMNDQKAGAVVGKFRVINAAKTLLTKFINIETICFQWMAQGGRWKWFKIATIPGTNFAIRRSIIEQLGGWDDKALAEDTELTIRVYNLGYHIRFFPAAVTWEQEPETWKVWWRQRTRWARGNQYVVLKFLAQFFKLKRKRIIFDLFYFFFTYFLFFFGVIMSNAIFVINLFYNLHLSFGFLSIILWVLAFFLFMTKVMITLSIEKTEMNRQNFFIVFLMYFTYSQAWIVLVIYSLFVEIKHRLFKQHGTKQNDTIKRKAGDFFEIYHHMSGKLLADHGDGTSGCSQRRYSRRLDPGGKQPGTSQAASAHKRSLDFIRGKRQRRADVSNTGGRLLYPSAAYT	failed
MGPFLMRILALGLVAGAALAQGVQAWLERGERLLSEGAYAEAVAAFEEVLRQDYGQFQAHLGLGVALVRLGRLEEARFAFDQMTRVFPDRYEGHFNLGQVYLRMGEAGKAAEAFAKAAAIAPREEAYLAWSGALLQEGKAREAAAVLERGLSPERSPAYRLALAQALYAAGEREAAVPHLYAALNREPGRAEAWDLLARVLAEVGLADRARREVERGLEAVQDPKGKALLLLRKGTLVEDPEPLWREALALDPDLWQAAYLLGRRRLEAGDLKEGLRWLQEAYAKGQDPEVALALAAAYLKAKDYANAYRYAKEAGPAGAFLQAQAAQGLGRRQEALKLLEGIASPQALALRGSLLLEEGQGEEAVAALQAAYEATRDPQVGVNLGAALVLVKRFGQAELVLREVLAKDPSSAAAWYNLGLALRGLGRQAEADRALRQAAALGSREARALLGR	failed
MGPLLVWHRGDLRLHDHPALLEALARGPVVGLVVLDPNNLKTTPRRRAWFLENVRALREAYRARGGALWVLEGLPWEKVPEAARRLKAKAVYALTSHTPYGRYRDGRVREALPVPLHLLPAPHLLPPDLPRAYRVYTPFSRLYRGAAPPLPPPEALPKGPEEGEIPREDPGLPLPEPGEEAALAGLRAFLEAKLPRYAEERDRLDGEGGSRLSPYFALGVLSPRLAAWEAERRGGEGARKWVAELLWRDFSYHLLYHFPWMAERPLDPRFQAFPWQEDEALFQAWYEGKTGVPLVDAAMRELHATGFLSNRARMNAAQFAVKHLLLPWKRCEEAFRHLLLDGDRAVNLQGWQWAGGLGVDAAPYFRVFNPVLQGERHDPEGRWLKRWAPEYPSYAPKDPVVDLEEARRRYLRLARDLARG	not failed
